The values below come from PMC3867114, “Kinetic analysis of the interactions between plant thioredoxin and target proteins” (Frontiers in Plant Science, 2013).

The term koff denotes the first-order rate constant of dissociation. One may read the kon as a measure of how fast the partners come together.

Data set [1] deals with the molecule itself. Nature of the data set: mixed disulfide complex formation, non-reducing SDS-PAGE with N-terminal sequencing; 50 μM Trxh1CS and 50 μM PrxQ incubated for the periods indicated, quenched with 5% TCA, non-reducing SDS-PAGE.
Data set [2] concerns the molecule itself. The data set is described as follows: SEC; TSK-G2000SWXL in H buffer, 280 nm; as a2 but without NEM treatment before the chromatography (for MDH: second round of the fractionated complex).
The target in data set [3] is Trxh1 mutant with a C43S substitution (Arabidopsis thaliana) (UniProt P29448). The data set is described as follows: SPR; Biacore X, 25°C; Trx variant immobilised as ligand on a CM5 chip by amine coupling (800–900 RU); target protein injected as analyte; H buffer (10 mM HEPES-NaOH, 150 mM NaCl, 50 μM EDTA, pH 7.4) with 0.005% Surfactant P20; 1:1 model for MDH, double exponential model for PrxQ; apparent (mixed disulfide formation with Trxh1CS). A general note: Surface plasmon resonance follows binding to a sensor surface in real time, without labels.

B1: Trxh1 mutant with a C43S substitution (natural protein, Arabidopsis thaliana, UniProt P29448 1-114, looked up)
chain: MASEEGQVIACHTVETWNEQLQKANESKTLVVVDFTASWCGPSRFIAPFFADLAKKLPNVLFLKVDTDELKSVASDWAIQAMPTFMFLKEGKILDKVVGAKKDELQSTIAKHLA
notes: thioredoxin h1 (Trxh1), cytosolic, Arabidopsis thaliana, AT3G51030, with C43S; Lacks the second cysteine of the catalytic motif; also called Trxh1CS; Trxh1CS mutant; source: expressed and purified as the wild-type Trxh1, with 0.5 mM DTT in all purification procedures
B1: the binding result in data set [1] was “binds”.

B2: Arabidopsis thaliana cytosolic malate dehydrogenase, oxidized form (enzyme, UniProt P93819 1-332, looked up)
chain: MAKEPVRVLVTGAAGQIGYALVPMIARGIMLGADQPVILHMLDIPPAAEALNGVKMELIDAAFPLLKGVVATTDAVEGCTGVNVAVMVGGFPRKEGMERKDVMSKNVSIYKSQAAALEKHAAPNCKVLVVANPANTNALILKEFAPSIPEKNISCLTRLDHNRALGQISERLSVPVSDVKNVIIWGNHSSSQYPDVNHAKVQTSSGEKPVRELVKDDAWLDGEFISTVQQRGAAIIKARKLSSALSAASSACDHIRDWVLGTPEGTFVSMGVYSDGSYSVPSGLIYSFPVTCRNGDWSIVQGLPIDEVSRKKMDLTAEELKEEKDLAYSCLS
modifications: Cys330–Cys330 intermolecular disulfide bond (oxidized form)
notes: cytosolic malate dehydrogenase (MDH), Arabidopsis thaliana, AT1G04410; also called MDH; oxidized MDH; source: cloned and purified as described in earlier work; oxidized by incubation with 50 μM CuCl2 for 1 h at 30°C
As for B2, in data set [2], the binding result is given as “binds”. Besides, in data set [3], the off-rate (koff) amounted to 0.000301 s⁻¹ and the kon amounted to 247 M⁻¹ s⁻¹.
